# Experimental data from publication PMC6570425, “Regulation of GLI1 by cis DNA elements and epigenetic marks”.
# Tests used:
# [1] = target: GLI2 (aa 84-355) (human, UniProt P10070-1 84-355); assay: EMSA; Roche DIG gel shift kit binding buffer (1X from 5X; composition, salt and pH not given), 155 fmol probe, 20 pmol competitor, 4 C 20 min, 5% TBE gel; conditions: protein: recombinant; tags: 6xHis; label: digoxigenin (or 32P); blunt
# [2] = target: GLI1 (aa 211-1106) (human, UniProt P08151 211-1106); assay: as above; conditions: protein: recombinant; label: digoxigenin (or 32P); blunt
# GLI1 (aa 211-1106), sequence (P08151 211-1106): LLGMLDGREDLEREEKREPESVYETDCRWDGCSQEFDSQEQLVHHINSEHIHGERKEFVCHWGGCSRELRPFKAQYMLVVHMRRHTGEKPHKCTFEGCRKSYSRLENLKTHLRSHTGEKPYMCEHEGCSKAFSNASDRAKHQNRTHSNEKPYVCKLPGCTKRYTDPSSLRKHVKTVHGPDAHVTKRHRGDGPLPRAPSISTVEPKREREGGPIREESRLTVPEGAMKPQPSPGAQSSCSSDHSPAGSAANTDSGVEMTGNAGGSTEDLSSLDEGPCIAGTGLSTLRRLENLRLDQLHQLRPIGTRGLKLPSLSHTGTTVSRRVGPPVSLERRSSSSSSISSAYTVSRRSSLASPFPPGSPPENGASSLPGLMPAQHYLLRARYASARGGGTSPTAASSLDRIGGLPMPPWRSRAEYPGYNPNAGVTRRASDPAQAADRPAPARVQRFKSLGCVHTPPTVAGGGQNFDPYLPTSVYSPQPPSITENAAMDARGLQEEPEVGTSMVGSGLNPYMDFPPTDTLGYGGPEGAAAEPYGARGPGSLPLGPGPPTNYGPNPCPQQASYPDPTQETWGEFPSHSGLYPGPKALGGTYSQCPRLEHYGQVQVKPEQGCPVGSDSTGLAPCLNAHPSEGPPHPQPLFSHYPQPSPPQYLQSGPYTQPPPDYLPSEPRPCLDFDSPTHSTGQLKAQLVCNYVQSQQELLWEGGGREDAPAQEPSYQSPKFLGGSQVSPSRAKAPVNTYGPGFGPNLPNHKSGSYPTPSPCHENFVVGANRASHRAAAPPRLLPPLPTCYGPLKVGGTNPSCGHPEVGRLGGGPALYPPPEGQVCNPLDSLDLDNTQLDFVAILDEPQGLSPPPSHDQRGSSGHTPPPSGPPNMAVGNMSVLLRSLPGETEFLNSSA
# GLI2 (aa 84-355), sequence (P10070 412-683): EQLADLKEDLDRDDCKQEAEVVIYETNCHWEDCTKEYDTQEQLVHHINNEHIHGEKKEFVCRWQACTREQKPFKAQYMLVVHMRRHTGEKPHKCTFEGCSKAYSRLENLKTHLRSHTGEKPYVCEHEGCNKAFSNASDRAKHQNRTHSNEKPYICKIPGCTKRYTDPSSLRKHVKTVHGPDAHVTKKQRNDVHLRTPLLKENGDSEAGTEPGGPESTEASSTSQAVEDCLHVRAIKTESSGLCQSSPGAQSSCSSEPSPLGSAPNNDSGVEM
Binder,binding result [1],binding result [2]
GBS #1 (dsDNA) DNA 1: CTCTGGCTCAGACCACCCTGCCTGCCCTT DNA 2: AAGGGCAGGCAGGGTGGTCTGAGCCAGAG,binds,binds
GBS #6 (dsDNA) DNA 1: TCTACACACAGACCACACAGGCAAAGCTC DNA 2: GAGCTTTGCCTGTGTGGTCTGTGTGTAGA,binds,binds
GBS #3 (dsDNA) DNA 1: AGGGGAGATATGGGTGGGCTGTGGAACGC DNA 2: GCGTTCCACAGCCCACCCATATCTCCCCT,binds,binds
GBS #5 (dsDNA) DNA 1: AAGGTCGAGTTGGGAGGTCTTGGATGCGG DNA 2: CCGCATCCAAGACCTCCCAACTCGACCTT,binds,binds
GBS #2 (dsDNA) DNA 1: GGCGGCGACTTGGGTGGGCCGAGGAGGCA DNA 2: TGCCTCCTCGGCCCACCCAAGTCGCCGCC,binds,binds
GBS #4 (dsDNA) DNA 1: AGCATCCCGGGATCACCCACCGCGCCGGC DNA 2: GCCGGCGCGGTGGGTGATCCCGGGATGCT,binds,binds
